The values that follow come from patent publication US20190276511A1 (BIONTECH RNA PHARMACEUTICALS, published 2019).

Like-named read-outs stand apart in the source and are kept apart here.

In experiment [1] the target is T1, 4-1BB-Fc (human, UniProt Q07011 24-186).
T1 construct: extracellular domain; hinge included for covalent assembly; also called 4-1BB receptor-Fc fusion protein; not shown: human Fc gamma 1 region including the hinge region
In words: ELISA, coated receptor-Fc. (In general: In an ELISA, binding on a coated surface is turned into a signal by an enzyme label.)

In experiment [2] the target is T2, CD40-Fc (human, UniProt P25942 21-193).
T2 construct: extracellular domain; hinge included for covalent assembly; also called CD40 receptor-Fc fusion protein; not shown: human Fc gamma 1 region including the hinge region
Description: ELISA, coated receptor-Fc.

Experiment [3] has as its target T3, OX40 receptor on cells (human, UniProt P43489 29-277).
T3 sequence (looked up): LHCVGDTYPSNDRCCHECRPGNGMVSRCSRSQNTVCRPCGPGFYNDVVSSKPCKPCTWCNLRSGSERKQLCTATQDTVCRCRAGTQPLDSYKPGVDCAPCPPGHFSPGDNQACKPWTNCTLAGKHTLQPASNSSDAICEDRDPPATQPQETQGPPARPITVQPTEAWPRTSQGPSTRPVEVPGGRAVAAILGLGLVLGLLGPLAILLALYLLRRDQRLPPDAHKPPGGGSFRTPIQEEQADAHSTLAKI
Description: cell-based or functional assay.

For experiment [4], the target named is T4, OX40-Fc (human, UniProt P43489 29-214).
T4 construct: extracellular domain; hinge included for covalent assembly; also called OX40 receptor-Fc fusion protein; not shown: human Fc gamma 1 region including the hinge region
T4 sequence (looked up): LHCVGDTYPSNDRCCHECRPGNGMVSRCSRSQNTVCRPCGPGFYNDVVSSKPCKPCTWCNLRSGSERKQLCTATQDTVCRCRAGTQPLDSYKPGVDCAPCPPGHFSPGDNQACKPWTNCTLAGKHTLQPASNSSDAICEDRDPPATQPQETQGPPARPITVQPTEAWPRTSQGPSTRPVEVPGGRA
Description: ELISA, coated receptor-Fc. On the procedure:
(§1) Receptor binding of the single-chain Duokines was analyzed by ELISA using fusion proteins of the extracellular region of CD40, CD27, 4-1BB and OX40, respectively, with the human Fcγ1 region including the hinge region for covalent assembly (CD40-Fc, CD27-Fc, 4-1BB-Fc, OX40-Fc). Receptor-Fc fusion proteins (200 ng/well) were coated overnight at 4° C. and remaining binding sites were blocked with PBS, 2% skimmed milk powder (2% MPBS). […] The interactions between scDuokine and receptor were dose-dependent with EC₅₀ values in the low nanomolar ranges (FIG. 11 AB, Tab. 2).

Experiment [5] deals with T5, CD27-Fc (human, UniProt P26842 20-191).
T5 construct: extracellular domain; hinge included for covalent assembly; also called CD27 receptor-Fc fusion protein; not shown: human Fc gamma 1 region including the hinge region
T5 sequence (looked up): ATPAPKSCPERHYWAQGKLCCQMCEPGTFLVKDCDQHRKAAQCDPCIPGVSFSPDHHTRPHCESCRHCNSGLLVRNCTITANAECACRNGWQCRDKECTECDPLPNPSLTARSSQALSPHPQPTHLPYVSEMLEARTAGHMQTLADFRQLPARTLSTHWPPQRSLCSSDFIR
Description: ELISA, coated receptor-Fc. On the procedure: as §1

The target in experiment [6] is T3, OX40 receptor on cells. Description: cell-based or functional assay. This is another data set of the same source.
The next experiment addresses 4-1BB receptor on cells (human, UniProt Q07011 24-255). Description: cell-based or functional assay.
The target of experiment [7] is T5, CD27-Fc. In words: ELISA, coated receptor-Fc. The source holds these as a separate data set.
The target in experiment [8] is T4, OX40-Fc. In words: ELISA, coated receptor-Fc. On the procedure: (§2) Receptor binding of the Duokines was analyzed by ELISA using fusion proteins of the extracellular region of CD40, CD27, 4-1BB and OX40, respectively, with the human Fcγ1 region including the hinge region for covalent assembly (CD40-Fc, CD27-Fc, 4-1BB-Fc, OX40-Fc). Receptor-Fc fusion proteins (200 ng/well) were coated overnight at 4° C. and remaining binding sites were blocked with PBS, 2% skimmed milk powder (2% MPBS).
The source holds these as a separate data set.

Experiment [9] deals with T1, 4-1BB-Fc. In words: ELISA, coated receptor-Fc. On the procedure: as §2
The source holds these as a separate data set.

Experiment [10] addresses T6, CD40 receptor on cells (human, UniProt P25942 21-277). Description: cell-based or functional assay.
Experiment [11] concerns the target T4, OX40-Fc. Description: ELISA, coated receptor-Fc. This is another data set of the same source.
In experiment [12] the target is T2, CD40-Fc. In words: ELISA, coated receptor-Fc. On the procedure:
as §2
This is another data set of the same source.

For experiment [13], the target named is T6, CD40 receptor on cells. In words: cell-based or functional assay. The source holds these as a separate data set.
Experiment [14] deals with T2, CD40-Fc. In words: ELISA, coated receptor-Fc. On the procedure:
as §1
This is another data set of the same source.

Experiment [15] has as its target T5, CD27-Fc. In words: ELISA, coated receptor-Fc. On the procedure: as §2
This is another data set of the same source.

T2 sequence (P25942 21-193 limits assumed): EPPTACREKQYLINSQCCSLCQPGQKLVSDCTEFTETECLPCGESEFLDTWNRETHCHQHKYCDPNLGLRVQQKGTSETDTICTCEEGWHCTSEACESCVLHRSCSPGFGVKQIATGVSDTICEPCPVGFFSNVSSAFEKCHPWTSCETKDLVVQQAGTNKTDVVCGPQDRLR
Chain of 4-1BB receptor on cells (Q07011 24-255): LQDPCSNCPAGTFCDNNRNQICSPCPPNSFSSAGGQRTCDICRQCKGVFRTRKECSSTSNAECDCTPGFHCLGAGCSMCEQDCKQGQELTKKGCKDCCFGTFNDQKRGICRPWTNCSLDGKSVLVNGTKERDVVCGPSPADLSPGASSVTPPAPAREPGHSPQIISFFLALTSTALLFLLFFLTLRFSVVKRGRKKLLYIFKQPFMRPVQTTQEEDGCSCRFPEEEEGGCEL
T6 sequence (P25942 21-277): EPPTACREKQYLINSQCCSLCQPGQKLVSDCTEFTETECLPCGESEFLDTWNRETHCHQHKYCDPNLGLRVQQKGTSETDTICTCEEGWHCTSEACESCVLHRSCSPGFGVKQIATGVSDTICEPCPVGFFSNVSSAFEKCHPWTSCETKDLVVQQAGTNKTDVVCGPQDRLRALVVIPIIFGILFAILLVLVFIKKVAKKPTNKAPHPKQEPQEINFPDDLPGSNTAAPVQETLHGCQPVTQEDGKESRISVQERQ

B1: scCD27L-scOX40L (ligand)
chain: SLGWDVAELQLNHTGPQQDPRLYWQGGPALGRSFLHGPELDKGQLRIHRDGIYMVHIQVTLAICSSTTASRHHPTTLAVGICSPASRSISLLRLSFHQGCTIASQRLTPLARGDTLCTNLTGTLLPSRNTDETFFGVQWVRPGGGSGGGSLGWDVAELQLNHTGPQQDPRLYWQGGPALGRSFLHGPELDKGQLRIHRDGIYMVHIQVTLAICSSTTASRHHPTTLAVGICSPASRSISLLRLSFHQGCTIASQRLTPLARGDTLCTNLTGTLLPSRNTDETFFGVQWVRPGGGSGGGSLGWDVAELQLNHTGPQQDPRLYWQGGPALGRSFLHGPELDKGQLRIHRDGIYMVHIQVTLAICSSTTASRHHPTTLAVGICSPASRSISLLRLSFHQGCTIASQRLTPLARGDTLCTNLTGTLLPSRNTDETFFGVQWVRPGGGGSGGGTGGGGSQVSHRYPRIQSIKVQFTEYKKEKGFILTSQKEDEIMKVQNNSVIINCDGFYLISLKGYFSQEVNISLHYQKDEEPLFQLKKVRSVNSLMVASLTYKDKVYLNVTTDNTSLDDFHVNGGELILIHQNPGEFCVLGGGSGGGQVSHRYPRIQSIKVQFTEYKKEKGFILTSQKEDEIMKVQNNSVIINCDGFYLISLKGYFSQEVNISLHYQKDEEPLFQLKKVRSVNSLMVASLTYKDKVYLNVTTDNTSLDDFHVNGGELILIHQNPGEFCVLGGGSGGGQVSHRYPRIQSIKVQFTEYKKEKGFILTSQKEDEIMKVQNNSVIINCDGFYLISLKGYFSQEVNISLHYQKDEEPLFQLKKVRSVNSLMVASLTYKDKVYLNVTTDNTSLDDFHVNGGELILIHQNPGEFCVL
notes: scDuokine from HEK293, FLAG-purified; VH leader left out; also called single-chain Duokine scCD27L-scOX40L; not shown: N-terminal FLAG tag
As for B1, the binding result with 4-1BB-Fc [1] and with CD40-Fc [2] was “no binding (tested: 100 nM (FIG. 10))” in each case. Moreover, the “Receptor activation (EC50, nM)” value with OX40 receptor on cells [3] was 1.49 nM. The EC50 in the experiment with OX40-Fc [4] turned out to be 286 nM; with CD27-Fc [5], 7.34 nM.

B2: OX40L-4-1BBL (ligand)
chain: QVSHRYPRIQSIKVQFTEYKKEKGFILTSQKEDEIMKVQNNSVIINCDGFYLISLKGYFSQEVNISLHYQKDEEPLFQLKKVRSVNSLMVASLTYKDKVYLNVTTDNTSLDDFHVNGGELILIHQNPGEFCVLGGGGSGGGGSGGGGSGGGGSREGPELSPDDPAGLLDLRQGMFAQLVAQNVLLIDGPLSWYSDPGLAGVSLTGGLSYKEDTKELVVAKAGVYYVFFQLELRRVVAGEGSGSVSLALHLQPLRSAAGAAALALTVDLPPASSEARNSAFGFQGRLLHLSAGQRLGVHLHTEARARHAWQLTQGATVLGLFRVTPEIPAGLPSPRSE
notes: Duokine from HEK293, FLAG-purified; VH leader left out; homotrimer by SEC; also called Duokine OX40L-4-1BBL; not shown: N-terminal FLAG tag
Turning to B2, the “Receptor activation (EC50, nM)” value with OX40 receptor on cells [6] amounted to 0.85 nM; with 4-1BB receptor on cells it was 2.75 nM. Besides, the binding result with CD40-Fc [2] and with CD27-Fc [7] was “no binding (tested: 100 nM (FIG. 4))” in each case. The EC50 with OX40-Fc [8] is 7.17 nM; with 4-1BB-Fc [9], 1.26 nM.

B3: CD40L-4-1BBL (ligand)
chain: GDQNPQIAAHVISEASSKTTSVLQWAEKGYYTMSNNLVTLENGKQLTVKRQGLYYIYAQVTFCSNREASSQAPFIASLCLKSPGRFERILLRAANTHSSAKPCGQQSIHLGGVFELQPGASVFVNVTDPSQVSHGTGFTSFGLLKLGGGGSGGGGSGGGGSGGGGSREGPELSPDDPAGLLDLRQGMFAQLVAQNVLLIDGPLSWYSDPGLAGVSLTGGLSYKEDTKELVVAKAGVYYVFFQLELRRVVAGEGSGSVSLALHLQPLRSAAGAAALALTVDLPPASSEARNSAFGFQGRLLHLSAGQRLGVHLHTEARARHAWQLTQGATVLGLFRVTPEIPAGLPSPRSE
notes: Duokine from HEK293, FLAG-purified; VH leader left out; homotrimer by SEC; also called Duokine CD40L-4-1BBL; not shown: N-terminal FLAG tag
On to B3, for which the “Receptor activation (EC50, nM)” value worked out at 0.45 nM with 4-1BB receptor on cells and 3.01 nM with CD40 receptor on cells [10]. The binding result in the experiment with OX40-Fc [11] and with CD27-Fc [7] was “no binding (tested: 100 nM (FIG. 4))” in each case. Besides, the values for the EC50 with 4-1BB-Fc [9] and with CD40-Fc [12] were 2.11 nM and 10.1 nM, respectively.

B4: scOX40L-scCD40L (ligand)
chain: QVSHRYPRIQSIKVQFTEYKKEKGFILTSQKEDEIMKVQNNSVIINCDGFYLISLKGYFSQEVNISLHYQKDEEPLFQLKKVRSVNSLMVASLTYKDKVYLNVTTDNTSLDDFHVNGGELILIHQNPGEFCVLGGGSGGGQVSHRYPRIQSIKVQFTEYKKEKGFILTSQKEDEIMKVQNNSVIINCDGFYLISLKGYFSQEVNISLHYQKDEEPLFQLKKVRSVNSLMVASLTYKDKVYLNVTTDNTSLDDFHVNGGELILIHQNPGEFCVLGGGSGGGQVSHRYPRIQSIKVQFTEYKKEKGFILTSQKEDEIMKVQNNSVIINCDGFYLISLKGYFSQEVNISLHYQKDEEPLFQLKKVRSVNSLMVASLTYKDKVYLNVTTDNTSLDDFHVNGGELILIHQNPGEFCVLGGGGSGGGTGGGGSGDQNPQIAAHVISEASSKTTSVLQWAEKGYYTMSNNLVTLENGKQLTVKRQGLYYIYAQVTFCSNREASSQAPFIASLCLKSPGRFERILLRAANTHSSAKPCGQQSIHLGGVFELQPGASVFVNVTDPSQVSHGTGFTSFGLLKLGGGSGGGGDQNPQIAAHVISEASSKTTSVLQWAEKGYYTMSNNLVTLENGKQLTVKRQGLYYIYAQVTFCSNREASSQAPFIASLCLKSPGRFERILLRAANTHSSAKPCGQQSIHLGGVFELQPGASVFVNVTDPSQVSHGTGFTSFGLLKLGGGSGGGGDQNPQIAAHVISEASSKTTSVLQWAEKGYYTMSNNLVTLENGKQLTVKRQGLYYIYAQVTFCSNREASSQAPFIASLCLKSPGRFERILLRAANTHSSAKPCGQQSIHLGGVFELQPGASVFVNVTDPSQVSHGTGFTSFGLLKL
notes: scDuokine from HEK293, FLAG-purified; VH leader left out; also called single-chain Duokine scOX40L-scCD40L; not shown: N-terminal FLAG tag
For the molecule B4, the binding result with 4-1BB-Fc [1] and in the experiment with CD27-Fc [7] was “no binding (tested: 100 nM (FIG. 10))” each time. Moreover, the “Receptor activation (EC50, nM)” value stood at 0.51 nM with OX40 receptor on cells [3] and 3.22 nM in the experiment with CD40 receptor on cells [13]. Also, the EC50 worked out at 2.13 nM in the experiment with OX40-Fc [4] and 6.74 nM with CD40-Fc [14].

B5: CD27L-4-1BBL (ligand)
chain: SLGWDVAELQLNHTGPQQDPRLYWQGGPALGRSFLHGPELDKGQLRIHRDGIYMVHIQVTLAICSSTTASRHHPTTLAVGICSPASRSISLLRLSFHQGCTIASQRLTPLARGDTLCTNLTGTLLPSRNTDETFFGVQWVRPGGGGSGGGGSGGGGSGGGGSREGPELSPDDPAGLLDLRQGMFAQLVAQNVLLIDGPLSWYSDPGLAGVSLTGGLSYKEDTKELVVAKAGVYYVFFQLELRRVVAGEGSGSVSLALHLQPLRSAAGAAALALTVDLPPASSEARNSAFGFQGRLLHLSAGQRLGVHLHTEARARHAWQLTQGATVLGLFRVTPEIPAGLPSPRSE
notes: Duokine from HEK293, FLAG-purified; VH leader left out; homotrimer by SEC; also called Duokine CD27L-4-1BBL; not shown: N-terminal FLAG tag
B5: in the experiment with 4-1BB receptor on cells, the “Receptor activation (EC50, nM)” value came out at 1.44 nM. The binding result in the experiment with OX40-Fc [11] and with CD40-Fc [2] was “no binding (tested: 100 nM (FIG. 4))” each time. Also, the EC50 with 4-1BB-Fc [9] came to 1.41 nM; with CD27-Fc [15], 6.34 nM.

The EC50 is the concentration that produces a half-maximal response. A higher EC50 goes with weaker potency.
